Experimental findings from patent US20220275083A1 (EUTILEX, published 2022) are described below.

One assay deals with T1, 4-1BB antigen (abclon) (UniProt Q07011 24-186).
T1 construct: Bought antigen
Kind of assay: SPR, Biacore T200; variant captured on CM5, 4-1BB antigen injected. Here is the method:
(§1) Affinity to 4-1BB was determined using the bispecific epitope binding protein variants diluted to 5 μg/ml and then fixed to CM5 chip (Cytiva, BR-1005-30) with human capture (Cytiva, Cat. No. BR-1008-39). The 4-1BB antigen (abclon) was injected at concentrations of 100, 50, 25, 12.5, 6.25, and 3.125 nM, the association time was set to 150 seconds, and the dissociation time was set to 240 seconds. Biacore T200 (cytiva) was used as the analysis equipment.
In general terms: Surface plasmon resonance follows binding to a sensor surface in real time, without labels.

Assay [1] addresses T2, PD-L1 antigen (SinoBiologics, Cat. No. 10084-H08H) (human, UniProt Q9NZQ7 19-238).
T2 construct: Bought antigen; also called human PD-L1
In words: SPR, Biacore T200; variant captured on CM5, PD-L1 antigen injected. Here is the method:
as §1
Affinity to PD-L1 was determined using the bispecific epitope binding protein variants diluted to 10 μg/ml and then fixed to CM5 chip with human capture.

T1 sequence (Q07011 24-186): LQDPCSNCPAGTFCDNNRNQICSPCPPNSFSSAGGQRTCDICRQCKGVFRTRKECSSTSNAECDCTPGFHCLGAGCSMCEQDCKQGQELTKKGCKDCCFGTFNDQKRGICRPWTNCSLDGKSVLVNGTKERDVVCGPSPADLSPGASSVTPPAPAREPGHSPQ
T2 sequence (Q9NZQ7 19-238 limits assumed): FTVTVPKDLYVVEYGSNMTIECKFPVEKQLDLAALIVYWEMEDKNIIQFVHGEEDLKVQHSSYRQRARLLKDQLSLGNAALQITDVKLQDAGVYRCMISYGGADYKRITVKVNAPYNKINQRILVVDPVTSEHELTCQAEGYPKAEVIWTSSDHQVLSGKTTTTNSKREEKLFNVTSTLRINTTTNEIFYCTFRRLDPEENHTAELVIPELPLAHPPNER

B1: bispecific epitope binding protein S01 (bispecific antibody)
chain: QVQLVQSGAEVKKPGASVKLSCKASGYTFSSYWMHWVRQAPGQGLEWIGEINPGNGHTNYNEKFKSRVTMTRDTSTSTAYMELSSLRSEDTAVYYCARSFKTARAFAYWGQGTLVTVSSGSTSGSGKPGSGEGSTKGDIVMTQSPAFLSVTPGEKVTITCRASQTISDYLHWYQQKPDQAPKLLIKYASQSISGIPSRFSGSGSGTDFTFTISSLEAEDAATYYCQDGHSWPPTFGQGTKLEIKASGGGGSGGGGSDKTHTCPPCPAPEAAGGPSVFLFPPKPKDTLMISRTPEVTCVVVDVSHEDPEVKFNWYVDGVEVHNAKTKPREEQYNSTYRVVSVLTVLHQDWLNGKEYKCAVSNKALPAPIEKTISKAKGQPREPQVYTLPPSREEMTKNQVSLTCLVKGFYPSDIAVEWESNGQPENNYKTTPPVLDSDGSFFLYSKLTVDKSRWQQGNVFSCSVMHEALHNHYTQKSLSLSPGGGGGSGGGGSFLESPDRPWNAPTFSPALLLVAEGDNATFTCSFSNASESFHVVWHRESPSGQTDTLAAFPEDRSQPGQDHRFRVTRLPNGRDFHMSVVRAQRNDSGTYVCGVISLAPKIQIKESLRAELRVTERRAEVPTAHPSPSPRPAGQFQTLVVG
notes: Anti-4-1BB 94kvt scFv x euPD-1 with hinge and engineered IgG1 Fc (L234A, L235A, K322A, D356E, L358M)
For orientation: Kd means the equilibrium constant for the complex coming apart. For orientation: koff means the first-order rate constant of dissociation. Lower therefore signals slow dissociation. The term kon denotes the rate constant with which the complex forms. In the assay with 4-1BB antigen (abclon), B1 registered a Kd of 3.34 nM, a koff of 0.000537 s⁻¹ and a kon of 161000 M⁻¹ s⁻¹. In assay [1], this molecule had a Kd of 5.73 nM, a koff of 0.00132 s⁻¹ and a kon of 230000 M⁻¹ s⁻¹.

B2: bispecific epitope binding protein S06 (bispecific antibody)
chain: FLESPDRPWNAPTFSPALLLVAEGDNATFTCSFSNASESFHVVWHRESPSGQTDTLAAFPEDRSQPGQDHRFRVTRLPNGRDFHMSVVRAQRNDSGTYVCGVISLAPKIQIKESLRAELRVTERRAEVPTAHPSPSPRPAGQFQTLVVGGGGGSGGGGSGGGGSFLESPDRPWNAPTFSPALLLVAEGDNATFTCSFSNASESFHVVWHRESPSGQTDTLAAFPEDRSQPGQDHRFRVTRLPNGRDFHMSVVRAQRNDSGTYVCGVISLAPKIQIKESLRAELRVTERRAEVPTAHPSPSPRPAGQFQTLVVGASGGGGSGGGGSDKTHTCPPCPAPEAAGGPSVFLFPPKPKDTLMISRTPEVTCVVVDVSHEDPEVKFNWYVDGVEVHNAKTKPREEQYNSTYRVVSVLTVLHQDWLNGKEYKCAVSNKALPAPIEKTISKAKGQPREPQVYTLPPSREEMTKNQVSLTCLVKGFYPSDIAVEWESNGQPENNYKTTPPVLDSDGSFFLYSKLTVDKSRWQQGNVFSCSVMHEALHNHYTQKSLSLSPGGGGGSGGGGSQVQLVQSGAEVKKPGASVKLSCKASGYTFSSYWMHWVRQAPGQGLEWIGEINPGNGHTNYNEKFKSRVTMTRDTSTSTAYMELSSLRSEDTAVYYCARSFKTARAFAYWGQGTLVTVSSGSTSGSGKPGSGEGSTKGDIVMTQSPAFLSVTPGEKVTITCRASQTISDYLHWYQQKPDQAPKLLIKYASQSISGIPSRFSGSGSGTDFTFTISSLEAEDAATYYCQDGHSWPPTFGQGTKLEIK
notes: Anti-4-1BB 94kvt scFv x euPD-1 with hinge and engineered IgG1 Fc
Consider B2, for which, in the assay with 4-1BB antigen (abclon), the Kd was determined as 3.72 nM, the koff worked out at 0.000914 s⁻¹ and the kon amounted to 245000 M⁻¹ s⁻¹. In assay [1], this molecule gave a Kd of 2.22 nM, a dissociation rate constant (koff) of 0.00186 s⁻¹ and a kon of 837000 M⁻¹ s⁻¹.

B3: bispecific epitope binding protein S08 (bispecific antibody)
chain: FLESPDRPWNAPTFSPALLLVAEGDNATFTCSFSNASESFHVVWHRESPSGQTDTLAAFPEDRSQPGQDHRFRVTRLPNGRDFHMSVVRAQRNDSGTYVCGVISLAPKIQIKESLRAELRVTERRAEVPTAHPSPSPRPAGQFQTLVVGGGGGSGGGGSGGGGSFLESPDRPWNAPTFSPALLLVAEGDNATFTCSFSNASESFHVVWHRESPSGQTDTLAAFPEDRSQPGQDHRFRVTRLPNGRDFHMSVVRAQRNDSGTYVCGVISLAPKIQIKESLRAELRVTERRAEVPTAHPSPSPRPAGQFQTLVVGASGGGGSGGGGSDKTHTCPPCPAPEAAGGPSVFLFPPKPKDTLMISRTPEVTCVVVDVSHEDPEVKFNWYVDGVEVHNAKTKPREEQYNSTYRVVSVLTVLHQDWLNGKEYKCAVSNKALPAPIEKTISKAKGQPREPQVYTLPPSREEMTKNQVSLTCLVKGFYPSDIAVEWESNGQPENNYKTTPPVLDSDGSFFLYSKLTVDKSRWQQGNVFSCSVMHEALHNHYTQKSLSLSPGGGGGSGGGGSDIVMTQSPAFLSVTPGEKVTITCRASQTISDYLHWYQQKPDQAPKLLIKYASQSISGIPSRFSGSGSGTDFTFTISSLEAEDAATYYCQDGHSWPPTFGQGTKLEIKGSTSGSGKPGSGEGSTKGQVQLVQSGAEVKKPGASVKLSCKASGYTFSSYWMHWVRQAPGQGLEWIGEINPGNGHTNYNEKFKSRVTMTRDTSTSTAYMELSSLRSEDTAVYYCARSFKTARAFAYWGQGTLVTVSS
notes: as for B2
Take B3: in the assay with 4-1BB antigen (abclon), binding was put at a Kd of 6.83 nM, the koff worked out at 0.000764 s⁻¹ and the kon is 112000 M⁻¹ s⁻¹. Also, in assay [1], the affinity, expressed as Kd, was 2.22 nM; the koff amounted to 0.00186 s⁻¹; the kon came to 837000 M⁻¹ s⁻¹.

B4: bispecific epitope binding protein S07 (bispecific antibody)
chain: FLESPDRPWNAPTFSPALLLVAEGDNATFTCSFSNASESFHVVWHRESPSGQTDTLAAFPEDRSQPGQDHRFRVTRLPNGRDFHMSVVRAQRNDSGTYVCGVISLAPKIQIKESLRAELRVTERRAEVPTAHPSPSPRPAGQFQTLVVGASGGGGSGGGGSDKTHTCPPCPAPEAAGGPSVFLFPPKPKDTLMISRTPEVTCVVVDVSHEDPEVKFNWYVDGVEVHNAKTKPREEQYNSTYRVVSVLTVLHQDWLNGKEYKCAVSNKALPAPIEKTISKAKGQPREPQVYTLPPSREEMTKNQVSLTCLVKGFYPSDIAVEWESNGQPENNYKTTPPVLDSDGSFFLYSKLTVDKSRWQQGNVFSCSVMHEALHNHYTQKSLSLSPGGGGGSGGGGSDIVMTQSPAFLSVTPGEKVTITCRASQTISDYLHWYQQKPDQAPKLLIKYASQSISGIPSRFSGSGSGTDFTFTISSLEAEDAATYYCQDGHSWPPTFGQGTKLEIKGSTSGSGKPGSGEGSTKGQVQLVQSGAEVKKPGASVKLSCKASGYTFSSYWMHWVRQAPGQGLEWIGEINPGNGHTNYNEKFKSRVTMTRDTSTSTAYMELSSLRSEDTAVYYCARSFKTARAFAYWGQGTLVTVSS
notes: as for B2
In the assay with 4-1BB antigen (abclon), B4 registered a Kd of 105 nM, a koff of 0.000676 s⁻¹ and a kon of 6430 M⁻¹ s⁻¹. Moreover, in assay [1], the Kd stood at 1.58 nM, the koff came to 0.00158 s⁻¹ and the kon was 1e+06 M⁻¹ s⁻¹.

B5: bispecific epitope binding protein S04 (bispecific antibody)
chain: DIVMTQSPAFLSVTPGEKVTITCRASQTISDYLHWYQQKPDQAPKLLIKYASQSISGIPSRFSGSGSGTDFTFTISSLEAEDAATYYCQDGHSWPPTFGQGTKLEIKGSTSGSGKPGSGEGSTKGQVQLVQSGAEVKKPGASVKLSCKASGYTFSSYWMHWVRQAPGQGLEWIGEINPGNGHTNYNEKFKSRVTMTRDTSTSTAYMELSSLRSEDTAVYYCARSFKTARAFAYWGQGTLVTVSSASGGGGSGGGGSDKTHTCPPCPAPEAAGGPSVFLFPPKPKDTLMISRTPEVTCVVVDVSHEDPEVKFNWYVDGVEVHNAKTKPREEQYNSTYRVVSVLTVLHQDWLNGKEYKCAVSNKALPAPIEKTISKAKGQPREPQVYTLPPSREEMTKNQVSLTCLVKGFYPSDIAVEWESNGQPENNYKTTPPVLDSDGSFFLYSKLTVDKSRWQQGNVFSCSVMHEALHNHYTQKSLSLSPGGGGGSGGGGSFLESPDRPWNAPTFSPALLLVAEGDNATFTCSFSNASESFHVVWHRESPSGQTDTLAAFPEDRSQPGQDHRFRVTRLPNGRDFHMSVVRAQRNDSGTYVCGVISLAPKIQIKESLRAELRVTERRAEVPTAHPSPSPRPAGQFQTLVVGGGGGSGGGGSGGGGSFLESPDRPWNAPTFSPALLLVAEGDNATFTCSFSNASESFHVVWHRESPSGQTDTLAAFPEDRSQPGQDHRFRVTRLPNGRDFHMSVVRAQRNDSGTYVCGVISLAPKIQIKESLRAELRVTERRAEVPTAHPSPSPRPAGQFQTLVVG
notes: as for B2
As to B5, in the assay with 4-1BB antigen (abclon), the Kd was 2.87 nM, the koff was found to be 0.000662 s⁻¹ and the kon was determined as 231000 M⁻¹ s⁻¹. In assay [1], this molecule came in with a Kd of 2.34 nM, a koff of 0.0014 s⁻¹ and a kon of 596000 M⁻¹ s⁻¹.

B6: bispecific epitope binding protein S05 (bispecific antibody)
chain: FLESPDRPWNAPTFSPALLLVAEGDNATFTCSFSNASESFHVVWHRESPSGQTDTLAAFPEDRSQPGQDHRFRVTRLPNGRDFHMSVVRAQRNDSGTYVCGVISLAPKIQIKESLRAELRVTERRAEVPTAHPSPSPRPAGQFQTLVVGASGGGGSGGGGSDKTHTCPPCPAPEAAGGPSVFLFPPKPKDTLMISRTPEVTCVVVDVSHEDPEVKFNWYVDGVEVHNAKTKPREEQYNSTYRVVSVLTVLHQDWLNGKEYKCAVSNKALPAPIEKTISKAKGQPREPQVYTLPPSREEMTKNQVSLTCLVKGFYPSDIAVEWESNGQPENNYKTTPPVLDSDGSFFLYSKLTVDKSRWQQGNVFSCSVMHEALHNHYTQKSLSLSPGGGGGSGGGGSQVQLVQSGAEVKKPGASVKLSCKASGYTFSSYWMHWVRQAPGQGLEWIGEINPGNGHTNYNEKFKSRVTMTRDTSTSTAYMELSSLRSEDTAVYYCARSFKTARAFAYWGQGTLVTVSSGSTSGSGKPGSGEGSTKGDIVMTQSPAFLSVTPGEKVTITCRASQTISDYLHWYQQKPDQAPKLLIKYASQSISGIPSRFSGSGSGTDFTFTISSLEAEDAATYYCQDGHSWPPTFGQGTKLEIK
notes: as for B2
In the assay with 4-1BB antigen (abclon), B6 came in with a Kd of 3.66 nM, a koff of 0.000466 s⁻¹ and a kon of 127000 M⁻¹ s⁻¹. In assay [1], the Kd was 1.16 nM, the koff is 0.00169 s⁻¹ and the kon worked out at 1.46e+06 M⁻¹ s⁻¹.
